The data set has as its target T1, GST-Mei2 RRM1-RRM2 (Schizosaccharomyces pombe, UniProt P08965 191-373).
T1 sequence: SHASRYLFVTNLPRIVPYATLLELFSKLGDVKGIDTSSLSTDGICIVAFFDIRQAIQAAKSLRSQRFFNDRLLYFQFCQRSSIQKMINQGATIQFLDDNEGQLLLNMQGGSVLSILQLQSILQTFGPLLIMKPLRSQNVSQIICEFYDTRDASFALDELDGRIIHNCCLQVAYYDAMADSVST
As to the kind of experiment: EMSA. In general terms: Mobility shift assays separate free from complexed probe on a gel.

Results on one molecule are retold here after PMC9486875.

Regarding GUCAAUCUUCUGCCGUCUUG (ssRNA) [meiRNA 20mer], the binding result was “no binding”.
